These results are taken from article PMC3071548 (Molecular microbiology, 2010).

The series deals with the molecule itself. Briefly: SEC.

B1: YgbT, purified full-length protein (natural protein, E. coli, UniProt Q46896 1-305, looked up)
chain: MTWLPLNPIPLKDRVSMIFLQYGQIDVIDGAFVLIDKTGIRTHIPVGSVACIMLEPGTRVSHAAVRLAAQVGTLLVWVGEAGVRVYASGQPGGARSDKLLYQAKLALDEDLRLKVVRKMFELRFGEPAPARRSVEQLRGIEGSRVRATYALLAKQYGVTWNGRRYDPKDWEKGDTINQCISAATSCLYGVTEAAILAAGYAPAIGFVHTGKPLSFVYDIADIIKFDTVVPKAFEIARRNPGEPDREVRLACRDIFRSSKTLAKLIPLIEDVLAAGEIQPPAPPEDAQPVAIPLPVSLGDAGHRSS
Take B1: the stoichiometry N (in general, a count of units in the complex or per binding partner) is 2.
